Paper PMC2756588

T1: Abp1, P15891
T1 sequence (P15891 535-592, looked up): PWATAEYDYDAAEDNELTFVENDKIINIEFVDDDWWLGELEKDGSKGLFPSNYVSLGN

T2: Bbc1, P47068
T2 sequence (P47068 1-78, looked up): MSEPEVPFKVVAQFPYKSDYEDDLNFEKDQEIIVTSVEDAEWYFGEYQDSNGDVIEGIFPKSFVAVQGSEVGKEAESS

T3: Boi1, P38041
T3 sequence (P38041 1-86, looked up): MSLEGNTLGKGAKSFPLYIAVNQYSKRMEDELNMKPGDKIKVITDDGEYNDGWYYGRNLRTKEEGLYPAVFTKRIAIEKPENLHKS

T4: Boi2, P39969
T4 sequence (P39969 32-116, looked up): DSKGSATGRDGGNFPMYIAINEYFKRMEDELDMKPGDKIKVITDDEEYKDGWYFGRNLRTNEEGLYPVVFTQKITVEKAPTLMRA

T5: Bud14, P27637
T5 sequence (P27637 247-328, looked up): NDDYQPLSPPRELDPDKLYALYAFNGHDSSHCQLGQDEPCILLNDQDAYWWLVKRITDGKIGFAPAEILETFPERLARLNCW

T6: Bzz1-1, P38822
T6 sequence (P38822 478-572, looked up): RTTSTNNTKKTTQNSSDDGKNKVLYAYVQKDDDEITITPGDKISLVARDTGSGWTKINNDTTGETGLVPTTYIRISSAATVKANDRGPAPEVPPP

T7: Bzz1-2, P38822
T7 sequence (P38822 568-633, looked up): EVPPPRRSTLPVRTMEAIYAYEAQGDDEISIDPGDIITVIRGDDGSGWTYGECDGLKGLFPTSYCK

T8: Cdc25, P04821
T8 sequence (P04821 50-136, looked up): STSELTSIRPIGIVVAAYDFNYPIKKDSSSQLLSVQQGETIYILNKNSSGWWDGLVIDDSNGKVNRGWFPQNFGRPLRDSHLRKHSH

T9: Cyk3, Q07533
T9 sequence (Q07533 1-83, looked up): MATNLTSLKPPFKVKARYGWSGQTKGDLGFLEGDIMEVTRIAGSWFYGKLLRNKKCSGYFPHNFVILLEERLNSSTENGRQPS

T10: Fus1, P11710
T10 sequence (P11710 432-512, looked up): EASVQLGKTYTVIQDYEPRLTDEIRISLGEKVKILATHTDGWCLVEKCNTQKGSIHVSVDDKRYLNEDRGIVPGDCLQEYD

T11: Hof1, Q05080
T11 sequence (Q05080 590-669, looked up): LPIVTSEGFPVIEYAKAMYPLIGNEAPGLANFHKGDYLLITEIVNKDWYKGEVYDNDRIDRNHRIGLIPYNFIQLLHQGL

T12: Hse1, P38753
T12 sequence (P38753 208-285, looked up): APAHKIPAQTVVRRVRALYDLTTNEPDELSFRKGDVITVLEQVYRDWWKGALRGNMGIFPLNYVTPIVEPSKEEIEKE

T13: Lsb1, P53281
T13 sequence (P53281 45-122, looked up): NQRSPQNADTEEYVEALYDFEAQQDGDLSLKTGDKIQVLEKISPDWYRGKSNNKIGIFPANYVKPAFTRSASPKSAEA

T14: Lsb3, P43603
T14 sequence (P43603 385-451, looked up): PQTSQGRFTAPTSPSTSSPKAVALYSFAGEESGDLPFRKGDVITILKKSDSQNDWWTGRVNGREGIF

T15: Lsb4, P32793
T15 sequence (P32793 402-468, looked up): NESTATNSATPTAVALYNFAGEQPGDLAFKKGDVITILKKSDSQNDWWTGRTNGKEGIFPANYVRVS

T16: Myo5, Q04439
T16 sequence (Q04439 1072-1160, looked up): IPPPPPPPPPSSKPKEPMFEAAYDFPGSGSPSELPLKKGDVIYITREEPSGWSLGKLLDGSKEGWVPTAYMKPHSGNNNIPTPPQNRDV

T17: Nbp2, Q12163
T17 sequence (Q12163 103-180, looked up): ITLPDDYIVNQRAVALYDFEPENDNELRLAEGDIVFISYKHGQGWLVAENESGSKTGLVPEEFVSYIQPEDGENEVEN

T18: Pex13, P80667
T18 sequence (P80667 295-386, looked up): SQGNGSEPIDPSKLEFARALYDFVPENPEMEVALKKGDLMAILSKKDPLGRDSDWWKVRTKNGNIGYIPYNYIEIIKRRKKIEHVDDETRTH

T19: Pin3, Q06449
T19 sequence (Q06449 53-122, looked up): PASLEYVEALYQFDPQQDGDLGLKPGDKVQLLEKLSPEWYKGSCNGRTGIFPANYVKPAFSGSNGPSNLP

T20: Sla1-2, P32790
T20 sequence (P32790 60-140, looked up): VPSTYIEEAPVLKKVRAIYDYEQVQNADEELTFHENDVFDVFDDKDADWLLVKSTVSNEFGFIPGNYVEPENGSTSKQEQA

T21: Sla1-3, P32790
T21 sequence (P32790 344-424, looked up): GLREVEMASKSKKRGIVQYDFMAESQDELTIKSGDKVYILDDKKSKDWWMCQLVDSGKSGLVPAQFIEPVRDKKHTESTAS


What was measured:
Test in all cases: SPOT array
Abp1, P15891 = biological target: T1, Abp1, P15891; conditions: median of control spots 935
Bbc1, P47068 = biological target: T2, Bbc1, P47068; conditions: median of control spots 796
Bem1-1, P29366 = conditions: median of control spots 4282
Bem1-2, P29366 = conditions: median of control spots 4347
Boi1, P38041 = biological target: T3, Boi1, P38041; conditions: median of control spots 1162
Boi2, P39969 = biological target: T4, Boi2, P39969; conditions: median of control spots 1161
Bud14, P27637 = biological target: T5, Bud14, P27637; conditions: median of control spots 956
Bzz1-1, P38822 = biological target: T6, Bzz1-1, P38822; conditions: median of control spots 4446
Bzz1-2, P38822 = biological target: T7, Bzz1-2, P38822; conditions: median of control spots 4538
Cdc25, P04821 = biological target: T8, Cdc25, P04821; conditions: median of control spots 969
Cyk3, Q07533 = biological target: T9, Cyk3, Q07533; conditions: median of control spots 1451
Fus1, P11710 = biological target: T10, Fus1, P11710; conditions: median of control spots 1200
GST = conditions: median of control spots 978
Hof1, Q05080 = biological target: T11, Hof1, Q05080; conditions: median of control spots 4086
Hse1, P38753 = biological target: T12, Hse1, P38753; conditions: median of control spots 1727
Lsb1, P53281 = biological target: T13, Lsb1, P53281; conditions: median of control spots 388
Lsb3, P43603 = biological target: T14, Lsb3, P43603; conditions: median of control spots 406
Lsb4, P32793 = biological target: T15, Lsb4, P32793; conditions: median of control spots 397
Myo3, P36006 = conditions: median of control spots 468
Myo5, Q04439 = biological target: T16, Myo5, Q04439; conditions: median of control spots 471
Nbp2, Q12163 = biological target: T17, Nbp2, Q12163; conditions: median of control spots 357
Pex13, P80667 = biological target: T18, Pex13, P80667; conditions: median of control spots 1341
Pin3, Q06449 = biological target: T19, Pin3, Q06449; conditions: median of control spots 2171
Rvs167, P39743 = conditions: median of control spots 2707
Sho1, P40073 = conditions: median of control spots 1148
Sla1-2, P32790 = biological target: T20, Sla1-2, P32790; conditions: median of control spots 712
Sla1-3, P32790 = biological target: T21, Sla1-3, P32790; conditions: median of control spots 5475

Sequence of Rvs167, P39743 (P39743 419-482): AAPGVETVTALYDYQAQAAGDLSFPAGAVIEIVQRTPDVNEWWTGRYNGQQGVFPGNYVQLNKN
Sequence of Bem1-2, P29366 (P29366 139-227): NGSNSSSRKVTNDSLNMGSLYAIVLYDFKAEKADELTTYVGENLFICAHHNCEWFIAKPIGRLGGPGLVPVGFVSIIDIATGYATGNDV
Sequence of Bem1-1, P29366 (P29366 55-141): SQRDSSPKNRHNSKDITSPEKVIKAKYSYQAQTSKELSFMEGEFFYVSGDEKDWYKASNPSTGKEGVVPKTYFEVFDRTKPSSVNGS
Sequence of Sho1, P40073 (P40073 287-367): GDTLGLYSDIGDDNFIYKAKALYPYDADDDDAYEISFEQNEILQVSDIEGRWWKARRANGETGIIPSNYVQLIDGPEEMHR

Binder	SPOT intensity (Abp1, P15891)	SPOT intensity (Bbc1, P47068)	SPOT intensity (Bem1-1, P29366)	SPOT intensity (Bem1-2, P29366)	SPOT intensity (Boi1, P38041)	SPOT intensity (Boi2, P39969)	SPOT intensity (Bud14, P27637)	SPOT intensity (Bzz1-1, P38822)	SPOT intensity (Bzz1-2, P38822)	SPOT intensity (Cdc25, P04821)	SPOT intensity (Cyk3, Q07533)	SPOT intensity (Fus1, P11710)	SPOT intensity (GST)	SPOT intensity (Hof1, Q05080)	SPOT intensity (Hse1, P38753)	SPOT intensity (Lsb1, P53281)	SPOT intensity (Lsb3, P43603)	SPOT intensity (Lsb4, P32793)	SPOT intensity (Myo3, P36006)	SPOT intensity (Myo5, Q04439)	other results
RRRIAYPFYPFKKLG	36	133	1	3	2	0	3	0	6	85	1	14	2	8	13	4	0	0	2	0	SPOT intensity (Nbp2, Q12163): 21; SPOT intensity (Pex13, P80667): 5; SPOT intensity (Pin3, Q06449): 0; SPOT intensity (Rvs167, P39743): 0; SPOT intensity (Sho1, P40073): 25; SPOT intensity (Sla1-2, P32790): 0; SPOT intensity (Sla1-3, P32790): 21
RKRRTHLRLPLIRSN	75	101	0	0	2	0	23	1	0	59	8	55	4	0	6	3	0	0	5	0	SPOT intensity (Nbp2, Q12163): 9; SPOT intensity (Pex13, P80667): 0; SPOT intensity (Pin3, Q06449): 3; SPOT intensity (Rvs167, P39743): 0; SPOT intensity (Sho1, P40073): 47; SPOT intensity (Sla1-2, P32790): 0; SPOT intensity (Sla1-3, P32790): 14

More lines, main results first:

SPOT intensity (Abp1, P15891)	SPOT intensity (Bbc1, P47068)	SPOT intensity (Bem1-1, P29366)	SPOT intensity (Bem1-2, P29366)	SPOT intensity (Boi1, P38041)	SPOT intensity (Boi2, P39969)	SPOT intensity (Bud14, P27637)	SPOT intensity (Bzz1-1, P38822)	SPOT intensity (Bzz1-2, P38822)	SPOT intensity (Cdc25, P04821)	SPOT intensity (Cyk3, Q07533)	SPOT intensity (Fus1, P11710)	SPOT intensity (GST)	SPOT intensity (Hof1, Q05080)	SPOT intensity (Hse1, P38753)	SPOT intensity (Lsb1, P53281)	SPOT intensity (Lsb3, P43603)	SPOT intensity (Lsb4, P32793)	SPOT intensity (Myo3, P36006)	SPOT intensity (Myo5, Q04439)	Binder	other results
165	20	0	4	0	1	4	3	7	11	3	8	3	0	5	0	10	4	16	2	RRRDFGAPANKRPRR	SPOT intensity (Nbp2, Q12163): 2; SPOT intensity (Pex13, P80667): 2; SPOT intensity (Pin3, Q06449): 9; SPOT intensity (Rvs167, P39743): 0; SPOT intensity (Sho1, P40073): 90; SPOT intensity (Sla1-2, P32790): 0; SPOT intensity (Sla1-3, P32790): 30
95	58	3	12	3	1	41	2	25	120	2	1	7	3	11	35	6	16	10	20	RRARRQMGIPTISQV	SPOT intensity (Nbp2, Q12163): 2; SPOT intensity (Pex13, P80667): 19; SPOT intensity (Pin3, Q06449): 33; SPOT intensity (Rvs167, P39743): 2; SPOT intensity (Sho1, P40073): 79; SPOT intensity (Sla1-2, P32790): 15; SPOT intensity (Sla1-3, P32790): 14
